Results taken from publication PMC8774819.

B1: WOX4 promoter probe a (dsDNA)
DNA 1: CCATCTGATCACAGCTTGACACACGAATCAGGTTATCCATCGTGTGA
DNA 2: TCACACGATGGATAACCTGATTCGTGTGTCAAGCTGTGATCAGATGG
B2: WOX4 promoter probe c (dsDNA)
DNA 1: GTAACGAGAAAGGCATGCATAGCATTTGCTAGTTTTAACATATAGCA
DNA 2: TGCTATATGTTAAAACTAGCAAATGCTATGCATGCCTTTCTCGTTAC

Molecular target: BES1-MBP (Arabidopsis thaliana, UniProt Q9LN63 1-335)
Test: EMSA

Chain of BES1-MBP (Q9LN63 whole entry): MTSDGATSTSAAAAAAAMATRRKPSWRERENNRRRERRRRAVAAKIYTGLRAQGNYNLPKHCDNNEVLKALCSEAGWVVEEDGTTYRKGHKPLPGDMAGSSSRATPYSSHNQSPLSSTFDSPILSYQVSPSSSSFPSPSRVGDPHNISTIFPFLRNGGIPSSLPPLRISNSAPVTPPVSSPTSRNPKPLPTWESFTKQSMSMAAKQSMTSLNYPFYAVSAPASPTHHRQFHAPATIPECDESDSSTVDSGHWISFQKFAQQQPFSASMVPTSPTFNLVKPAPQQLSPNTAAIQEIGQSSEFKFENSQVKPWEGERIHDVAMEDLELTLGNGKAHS

Row | Binder | binding result
1 | B1 | binds
2 | B2 | binds
